# Results from the nanobody polyreactivity screen of Harvey et al. (2022).
# Assay: yeast display, Sf9 membrane polyspecificity reagent, FACS + sequencing; frameworks hold sequencing errors
# Summary of the method: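 Galactose induction of a Saccharomyces cerevisiae BJ5465 synthetic nanobody display library ran 36–48 hours. The cells were then stained for 1 hour at 4 °C with 10% biotinylated, detergent-solubilized Sf9 membrane reagent, pulled down on streptavidin microbeads and FACS-sorted into low and high (top ~1%) gates on expression and reagent-binding fluorescence. Labels for polyreactivity follow the gate of origin.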
row,Sequence,polyreactivity (PSR sort gate)
1,QVQLVESGGGLVQAGGSLLLRCAASGSIFPWNTMGWNRQAPGKERELVARISTSGASTYYADSVKGRFTISRDNAKNTVYLQMNSRKPEDTAVYYGAARDWSHRPRGYDYWGQGTQVTVSS,high polyreactivity
2,QVQLVESGGGLVQAGGSLLLSCAASGFTFRYYAMGWYRQAPGKERELVAAITGSGTRTYYADSVKGRFTISRDYGKNTVYLQMNSLKPEDPAVYYCNAPRQPRWFDYWGQGTQVTVSS,high polyreactivity
3,QVQLVESGGGLVQAGGSLLLSCAASGFTLEKNAMGWYRTAPGKERELVADISSTDSTNYADSVKGRFTISRDNAKITVYFQMNSVKPEDTAVYYCGRYDGPGTEEFDYWGQGSQVTVSS,low polyreactivity
4,QVQLVESGGGLVQAGGSLLLSCAASGGTFGGYTMGWYRQAPVKERELVAAITRSGSSTFYADSVKGRFTISRDNAKNTVYLQMNSLKPEDTAVYYCAALWHAVFYADYDYWGQGTQVSVSS,high polyreactivity
5,QVQLVESGGGLVQAGGSLLLSCAASGIIFRYNTMGLYRQAPGKERELVAAIRTTGGSTNYADSVKGRFTISRDNAKNTVYLQMNSLKPEDTAVYYCNKGVSSRAFDYWGQGTQVTVSS,low polyreactivity
6,QVQLVESGGGLVQAGGSLLLSCAASGITSWYYVMGWYRQAPGKERELVAAITRSGGSTYYADSVKGRFTISRDTAKNTVFLQMNSLKPEDTAVYYCAARSYPQRWTTYPYGYWGQGTQVTVSS,high polyreactivity
7,QVQLVESGGGLVQAGGSLLLSCAASGRIFRYNAMGWYRQAPGKERELVAAISWTVGRTYYADSVKGRFTISRDNAMNTVYLQMNSLKPEDTAVYYCATYFRVWYRSYDYWGQGTQVTVSS,high polyreactivity
8,QVQLVESGGGLVQAGGSLLLSCAASGRTFATNAMGWNRQAPGKERELVADISGGGSTYYADSVKGRFTISRDNAKNTVYLQMNSMKPEDTAVYYCAARDYHWFQWYDYWGQGTQVTVSS,low polyreactivity
9,QVQLVESGGGLVQAGGSLLLSCAASGRTFYYNDMGWYRQAPGKERELVASISYGGSTYYADSVKGRFTISRDNAKNTVYLQMNSLKPEDTAVYYCATVDWRWRYARRPRYDYWGQGTQVTVSS,high polyreactivity
10,QVQLVESGGGLVQAGGSLLLSCAASGSIFFPNAMGWYRQAPGKERELVAAINWSGDSTYYADSVKGRFTISRDNAKNTVYLQMNSLKPVDTAVYSCNATYPWFDYDYWGQGTQVTVSS,low polyreactivity
11,QVQLVESGGGLVQAGGSLLLSCAASGSIFQQYAMGGSRQAPGKERDLVAAISWGDGSTYYADSVKGRFTISRDNAKNTVYLQMNSLKPEDTAVYYCNAYASAPLWSLEDDYWGKGTQVTVSS,low polyreactivity
12,QVQLVESGGGLVQAGGSLLLSCAASGSLFYRYAMGWYRQAPGKERELVAAISWGGGRTYYADSVKGRFTISRDNAKNTVYLQMNRLKPEDTAVYSCNREKYVRWIREDYDYWGQGTQVTVSS,high polyreactivity
13,QVQLVESGGGLVQAGGSLLLSCAASGSTLGRYAMGWYRQAPGKERELVASITWSDDSTYYADSVKGRFTISRDNAKNTVYLQMNSLKPEDTAVYYCAAAGNLYTYRFYYWGQGTQVTVSS,low polyreactivity
14,QVQLVESGGGLVQAGGSLLLSCAASGSTYKYAMGWYRQAPGKERELVAVISSGGSTDDADSVKGRFTISRDNAKNTVYLQMNSLKPEDTAVYYCAADSGFVSIGSYYWGLGTQVTVSS,low polyreactivity
15,QVQLVESGGGLVQAGGSLLLSCAASGYTFKSYVMGWYRQAPGKERELVAAITSIGGSTYYADSVKGRFTISRDNAKNNVYLQMNSLKPEDTALYYCAKYPGISGYNYWGQGTQVTVSS,high polyreactivity
16,QVQLVESGGGLVQAGGSLLLSCAATGITFVPNAMGWYRQAPGKERELVDAISTRGGSTYYADSVKGRFTISRDNAKNTVYLQMNSLKPEDTAVYYCNALITGRWFDYWGQGTQVTVSS,high polyreactivity
17,QVQLVESGGGLVQAGGSLLLSSADSGSTFNYNAMGWYRQSHGKERELVAVINSGGSTYYADSVKGRFTISRDNAKNTVYLQMNSLKPEDTAVYYCAAATYRQQWHYYWGQGTQGTVSS,high polyreactivity
18,QVQLVESGGGLVQAGGSLPLSCAASGATFTFYTMRSYRQAPGKERELVATISWRGGNTYYADSVKGRFTISRDNAKNTVYLQMNSLKPEDTAVYYCNAAPYRRGYGFREYDYWGQGTQVTVSS,high polyreactivity
19,QVQLVESGGGLVQAGGSLPLSCAASGFTFDKYAMGWYRQAPGKERELVAAISNSGGRTYYADSVKGRFTISRDNAKKTVYLQMNSLKPEDTAVYYCAAKFRYQYVRVAREYYYWGQGTQVTVSS,high polyreactivity
20,QVQLVESGGGLVQAGGSLPLSCAASGIIFSYNAKGWDRQAPGKERELDAAIRENGGSTYYADSVKGRFTISRDNAKNTVYLQMNSLKPEDTAGYYCAVATSYYAGYEYDYWGQGTQVTVSS,low polyreactivity
21,QVQLVESGGGLVQAGGSLPLSCAASGRIYDSYAKGWYIQAPGKERELVAAISFGGDTYYADSVKGRFTISRDNAKNTVYLQMNSLKPEDTAVYYCAKDNPAALFDSWGQGTQVTVSS,low polyreactivity
22,QVQLVESGGGLVQAGGSLPLSCAASGRTFDSYTMGWYRQAPGKERELVAAIRSSGGRTYADSVKGRFTISRDNAKNTVYLQMNSLKPEDTAVYYCAAARSYWAKYYYWGQGTQVTVSS,high polyreactivity
23,QVQLVESGGGLVQAGGSLPLSCAASGRTFPFNALGWYRQAPGKEREFVAAISVGGGSTYADSVKGRFTISRDNAKNTFYLQMNSLKPEDTAVYYCAAAYTKLYYYWGQGTQVTVSS,low polyreactivity
24,QVQLVESGGGLVQAGGSLPLSCAASGSIFTYYAMGSYRQAPGKEREFVAAISRRGGSTYYADSVKGRFTISRDNAKNTVYLQMNSLKPEDTAVYYCNARDTGSSLYYWGQGTQVTVSS,high polyreactivity
25,QVQLVESGGGLVQAGGSLPLSCAASGSIFWRNAMGWYRQAPGKEREFVATITWSGDSTYYADSVKGRFTISRDNAKNTVYLQMNSLKPEDTAVYYYAAAYSNWHPGLDYWGQGTPVTVSS,low polyreactivity
26,QVQLVESGGGLVQAGGSLPLSCAASGSTFNKYTMGWSRQPPGKERELVAAITSGDSTYYADSVKGRFTISRDNAKNTVYLQMNSLKPDDTAVYYCAKSLRAYRHVIYGKPFYSWGQGTQVTVSS,low polyreactivity
27,QVQLVESGGGLVQAGGSLPLSCAASGYTFQRYAMGWYRQAPGKERELVAAITGAGGSTYYADSVKGRFTISRDNAKNTVYLQMNSLKPEDTAVYYCAARQYRRVIKHGYNYWGQGTQVTVSS,high polyreactivity
28,QVQLVESGGGLVQAGGSLRFSCAACGMTIWYYGMGSYRQAPGKERELLAAISKTGGRTYDADSVKGRFTISRDNAKNTVYLQMNRLKPEDTAVYNCNARYLLVSRYWENDYWGQATQVTVSS,low polyreactivity
29,QVQLVESGGGLVQAGGSLRFSCAASGFIFSFYAMGWYRQAPGKERELVAAISSSGSTNYADSVKGRFTISRDNAKNTVYLQMNSLKPEDTAVYYCAARWHRSRAGYYYWGQGTQVTVSS,high polyreactivity
30,QVQLVESGGGLVQAGGSLRFSCAASGFTFTVYAMGWYRQAPGKGRELVAAISWNGGSTYYADSVKGRFTISRDNATNTDYLQRNSLKPEDTAVYYCNKYYYRGVRYYRDHDYWGQGTQVTVSS,high polyreactivity
